Results on two molecules are retold here after publication doi:10.1101/2023.03.22.533679, “Selective inhibitors of the Aurora A-TPX2 protein-protein interaction exhibit in vivo efficacy as targeted anti-mitotic agents” (bioRxiv, 2023).

Assay [1] has as its target T1, Aurora A kinase domain (residues 126-390) with hexa-His tag (human, UniProt O14965 126-390).
T1 construct: Aurora A, human, kinase domain only, residues 126-390, Uniprot O14965; construct for biophysical assays; No removal of the His tag is described; The crystallography constructs differ (Thr287Ala or Cys290Ala; or residues 126-391 without His tag); also called Aurora A protein; pBAT4-AurAS.003 construct; source: E. coli BL21(DE3) with pUBS520, co-expressed with lambda phosphatase, purified (HisTrap, …)
T1 sequence (looked up): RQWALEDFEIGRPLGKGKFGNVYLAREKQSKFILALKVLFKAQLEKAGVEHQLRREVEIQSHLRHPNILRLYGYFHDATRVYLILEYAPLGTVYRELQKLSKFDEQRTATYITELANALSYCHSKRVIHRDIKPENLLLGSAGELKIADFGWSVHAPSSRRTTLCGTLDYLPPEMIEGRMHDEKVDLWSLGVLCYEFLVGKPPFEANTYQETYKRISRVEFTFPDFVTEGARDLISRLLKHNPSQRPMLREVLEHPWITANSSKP
Briefly: ligand-based NMR competition; ligand-based NMR of fragment hits with Aurora A; displacement of the fragments by the TPX2 peptide fragment 7-22. The following applies: both partners purified.

Assay [2] deals with T1, Aurora A kinase domain (residues …). Briefly: fluorescence polarisation; direct titration of up to 200 nM Aurora A to 11 nM labelled TPX2 peptide; 100 mM HEPES pH 7.4, 100 mM magnesium acetate, 50 mM NaCl, 0.02% P20, 1 mM DTT, 1 mM ATP, 10% (v/v) DMSO. Particulars: both partners purified.

Where no end group is shown, it is not given here.

B1: TPX2 peptide fragment (amino acids 7-22) (peptide, UniProt Q9ULW0 7-22, looked up)
peptide: SYSYDAPSDFINFSSL
notes: TPX2, amino acids 7-22; Uniprot Q9ULW0 is printed for the longer TPX2 peptide of the methods
In the case of B1, the binding result in assay [1] was “binds”.

B2: TPX2 peptide (residues 7-43) with C-terminal GGGCSS tail, labelled with Alexa Fluor 488 (peptide)
peptide: SYSYDAPSDFINFSSLDDEGDTQNIDSWFEEKANLENGGGC(Alexa Fluor 488 C5 maleimide)SS
notes: TPX2 (Targeting protein for Xenopus kinesin-like protein 2), residues 7-43, Uniprot Q9ULW0; C-terminal tail that carries the cysteine for labelling; also called labelled TPX2 peptide; labelled TPX2; source: E. coli, purified (Ni Sepharose, labelled, cleaved with HRV 3C protease, second Ni Sepharose, reversed phase C18); not shown: His-tag, N-terminal, cleaved; GB1, N-terminal, cleaved
Take B2: in assay [2], the Kd stood at 1.2 nM.
